This note sets out measurements from paper PMC12710124, “Pleomorphism in Wild-Type and Engineered PP7 Virus-Like Particles” (Small (Weinheim an der Bergstrasse, Germany), 2025).

Values joined by “and” are separate entries in the source; they are usually repeats but may differ in a detail not shown here. Equal entries are not always repeated. Where two headings read alike, the source gives them in different places.

What all share (assay): cryo-EM structure; 3D reconstruction of purified VLPs self-assembled in the bacterial expression host; closed cages (T = 3, T = 4, D5, D5E, C2, C3) and tubes
Data set [1] deals with PP7-AY-PP7, PP7 coat protein dimer with AY linker (Pseudomonas phage PP7).
For data set [2] the target is unchanged. The source holds these as a separate data set.
Data set [3] concerns the molecule itself.

For orientation: stoichiometry N means a count of units in the complex or per binding partner.

Regarding “PP7-AY-PP7, PP7 coat protein dimer with AY linker”, the values for the stoichiometry N in data set [1] and in data set [2] were 87 copies and 102 copies, respectively.

B1: PP7 coat protein (wild-type, monomeric) (natural protein)
chain: MSKTIVLSVGEATRTLTEIQSTADRQIFEEKVGPLVGRLRLTASLRQNGAKTAYRVNLKLDQADVVDCSTSVCGELPKVRYTQVWSHDVTIVANSTEASRKSLYDLTKSLVATSQVEDLVVNLVPLGR
notes: Self-assembles in the expression host into VLPs; also called PP7 CP; PP7 capsid protein; source: bacterial expression host (E. coli), recombinantly expressed, purified as VLPs
For B1, in data set [3], the “stoichiometry N” value is 150 coat proteins and 174 copies and 204 copies.
